This series deals with the molecule itself. Kind of series: non-reducing SDS-PAGE of whole cell extracts of transfected HEK293T cells.

B1: CPG15-2 (other)
chain: SEGPNRCDTIYQGFAECLIRLGDGMGRGGELQTVCRSWNDFHACASRVLSGCPEEAAAVWESLQQEARRAPHPDNLHILCGAPVSVRERIAGPETNQETLRATA
notes: also called mouse CPG15-2
In the case of B1, the binding result is given as “binds”.

These data come from patent US20050187175A1 (published 2005).
